Data: article PMC11040147
Like-named read-outs stand apart in the source and are kept apart here.

Columns and labels:
Assay in all cases: EMSA
[1] = biological target: T1, SF3B4 (human? (HeLa cDNA), UniProt Q15427 1-424)
[2] = biological target: T1, SF3B4; remark: listed apart in the source
[3] = biological target: T1, SF3B4; remark: listed apart in the source

T1 sequence (Q15427 whole entry): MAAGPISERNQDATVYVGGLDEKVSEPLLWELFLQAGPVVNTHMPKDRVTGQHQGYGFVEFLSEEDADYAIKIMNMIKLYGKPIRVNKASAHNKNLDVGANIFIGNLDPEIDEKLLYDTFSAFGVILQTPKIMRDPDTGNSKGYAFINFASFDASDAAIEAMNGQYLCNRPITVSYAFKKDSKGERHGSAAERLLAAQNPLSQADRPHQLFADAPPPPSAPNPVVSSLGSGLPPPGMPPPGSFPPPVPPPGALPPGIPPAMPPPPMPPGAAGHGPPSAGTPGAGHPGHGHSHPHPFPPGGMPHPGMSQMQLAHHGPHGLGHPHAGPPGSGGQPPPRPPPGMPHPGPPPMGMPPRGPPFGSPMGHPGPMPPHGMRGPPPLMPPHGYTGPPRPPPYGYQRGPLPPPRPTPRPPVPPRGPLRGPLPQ

GGGAGGUGGGAGCCGAGGGUGGG (structured_RNA) [G4-INPPL1]: binds [1].

GGTTAGGGTTAGGGTTAGGGTTAGGGTTAG (structured_DNA) [hTelo]: binds [2].

AGAGUGAAGUCUGAAGCGCUGAG (ssRNA) [PPP6R2-mut]: no binding [3].
